Test results from patent US12195506B2, “Immunotherapy with A*01 restricted peptides and combination of peptides against cancers and related methods” (Immatics Biotechnologies GmbH, priority 2018, dated 2025).

How the values were obtained:
[1] = target: HLA-A*01:01 (Homo sapiens, UniProt P04439, A114D/A174V/A182V/D101N/D185E/E176A/E190D/L180R/Q94H/R68K/S129P/T187R/V100A/V91M/W191G); assay: MHC binding assay: UV-ligand exchange, ELISA of stabilized MHC complexes (peptide exchange yield); conditions: binding to HLA-A*01:01, UV-ligand exchange
Procedure, shortened: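 Peptide–MHC complexes were formed by UV-induced exchange of a photocleavable ligand for the test peptide. Exchange yield was measured by streptavidin-capture ELISA of 100-fold diluted complexes, detected with HRP anti-β2m at A450. Refolded HLA-A*02:01/MLA-001 monomers at 15-500 ng/ml served as standards.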

[2] = tested on: CD8+ T cells; assay: In vitro T-cell priming assay with artificial antigen presenting cells loaded with peptide/MHC complexes and anti-CD28 antibody, pMHC multimer readout; type: cell-based, human; conditions: in vitro immunogenicity, peptide-specific multimer+ CD8+ T cells
From the text: In order to obtain information regarding the immunogenicity of the TUMAPs of the present invention, the inventors performed investigations using an in vitro T-cell priming assay based on repeated stimulations of CD8+ T cells with artificial antigen presenting cells (aAPCs) loaded with peptide/MHC complexes and anti-CD28 antibody.
In order to perform in vitro stimulations by artificial antigen presenting cells loaded with peptide-MHC complex (pMHC) and anti-CD28 antibody, the inventors first isolated CD8+ T cells from fresh HLA-A*02 leukapheresis products via positive selection using CD8 microbeads (Miltenyi Biotec, Bergisch-Gladbach, Germany) of healthy donors obtained from the University clinics Mannheim, Germany, after informed consent.
PBMCs and isolated CD8+ lymphocytes were incubated in T-cell medium (TCM) until use consisting of RPMI-Glutamax (Invitrogen, Karlsruhe, Germany) supplemented with 10% heat inactivated human AB serum (PAN-Biotech, Aidenbach, Germany), 100 U/ml Penicillin/100 μg/ml Streptomycin (Cambrex, Cologne, Germany), 1 mM sodium pyruvate (CC Pro, Oberdorla, Germany), 20 μg/ml Gentamycin (Cambrex). 2.5 ng/ml IL-7 (PromoCell, Heidelberg, Germany) and 10 U/ml IL-2 (Novartis Pharma, Nurnberg, Germany) were also added to the TCM at this step.
Generation of pMHC/anti-CD28 coated beads, T-cell stimulations and readout was performed in a highly defined in vitro system using four different pMHC molecules per stimulation condition and 8 different pMHC molecules per readout condition.
The purified co-stimulatory mouse IgG2a anti human CD28 Ab 9.3 (Jung et al., 1987) was chemically biotinylated using Sulfo-N-hydroxysuccinimidobiotin as recommended by the manufacturer (Perbio, Bonn, Germany). Beads used were 5.6 μm diameter streptavidin coated polystyrene particles (Bangs Laboratories, Illinois, USA).
pMHC used for positive and negative control stimulations were A*0201/MLA-001 (peptide […] (SEQ ID NO. 433) from modified Melan-A/MART-1) and A*0201/DDX5-001 ([…] from DDX5, SEQ ID NO. 434), respectively.
800.000 beads/200 μI were coated in 96-well plates in the presence of 4×12.5 ng different biotin-pMHC, washed and 600 ng biotin anti-CD28 were added subsequently in a volume of 200 μI. Stimulations were initiated in 96-well plates by co-incubating 1×10^6 CD8+ T cells with 2×10^5 washed coated beads in 200 μI TCM supplemented with 5 ng/ml IL-12 (PromoCell) for 3 days at 37° C. Half of the medium was then exchanged by fresh TCM supplemented with 80 U/ml IL-2 and incubating was continued for 4 days at 37° C. This stimulation cycle was performed for a total of three times. For the pMHC multimer readout using 8 different pMHC molecules per condition, a two-dimensional combinatorial coding approach was used as previously described (Andersen et al., 2012) with minor modifications encompassing coupling to 5 different fluorochromes. Finally, multimeric analyses were performed by staining the cells with Live/dead near IR dye (Invitrogen, Karlsruhe, Germany), CD8-FITC antibody clone SK1 (BD, Heidelberg, Germany) and fluorescent pMHC multimers. For analysis, a BD LSRII SORP cytometer equipped with appropriate lasers and filters was used. Peptide specific cells were calculated as percentage of total CD8+ cells. Evaluation of multimeric analysis was done using the FlowJo software (Tree Star, Oregon, USA). In vitro priming of specific multimer+CD8+ lymphocytes was detected by comparing to negative control stimulations.

Row | Peptide exchange [1] | Substance | Wells positive [%] ([2]; Table 10b) | Wells positive [%] ([2]; Table 10a)
1 | +++ (>50 = +++) | 10 (VSERTGISY; listed as Homo sapiens) [compound 10] | + (<20% = +) | –
2 | +++ (>50 = +++) | 11 (ASDHWRGRY; listed as Homo sapiens) [compound 11] | +++ (50%-69% = +++) | –
3 | +++ (>50 = +++) | 12 (YTDFVGEGLY; listed as Homo sapiens) [compound 12] | + (<20% = +) | –
4 | ++++ (>75% = ++++) | 18 (RSDPVSLRY; listed as Homo sapiens) [compound 18] | ++ (20%-49% = ++) | –
5 | ++++ (>75% = ++++) | 19 (LTEGHSGNY; listed as Homo sapiens) [compound 19] | + (<20% = +) | –
6 | +++ (>50 = +++) | 24 (NLDHYTNAY; listed as Homo sapiens) [compound 24] | + (<20% = +) | –
7 | +++ (>50 = +++) | 26 (ASDDFRSKY; listed as Homo sapiens) [compound 26] | ++ (20%-49% = ++) | –
8 | ++++ (>75% = ++++) | 27 (PSEVPVDSHY; listed as Homo sapiens) [compound 27] | + (<20% = +) | –
9 | +++ (>50 = +++) | 33 (SMDPVTGYQY; listed as Homo sapiens) [compound 33] | + (<20% = +) | –
10 | +++ (>50 = +++) | 37 (MTSTEQSLYY; listed as Homo sapiens) [compound 37] | + (<20% = +) | –
11 | +++ (>50 = +++) | 42 (ASDVDTLLK; listed as Homo sapiens) [compound 42] | + (<20% = +) | –
12 | ++++ (>75% = ++++) | 53 (YLEDRPLSQLY; listed as Homo sapiens) [compound 53] | + (<20% = +) | –
13 | +++ (>50 = +++) | 54 (EVDIHTIHY; listed as Homo sapiens) [compound 54] | + (<20% = +) | –
14 | ++++ (>75% = ++++) | 60 (MTEKFLFLY; listed as Homo sapiens) [compound 60] | + (<20% = +) | –
15 | +++ (>50 = +++) | 61 (SSDIVALGGFLY; listed as Homo sapiens) [compound 61] | ++ (20%-49% = ++) | –
16 | +++ (>50 = +++) | 64 (TSEISQNALMYY; listed as Homo sapiens) [compound 64] | + (<20% = +) | –
17 | +++ (>50 = +++) | 70 (YTELVEEKY; listed as Homo sapiens) [compound 70] | + (<20% = +) | –
18 | +++ (>50 = +++) | 71 (LTDSTTRTTY; listed as Homo sapiens) [compound 71] | + (<20% = +) | –
19 | ++++ (>75% = ++++) | 73 (STDSASYY; listed as Homo sapiens) [compound 73] | + (<20% = +) | –
20 | ++++ (>75% = ++++) | 75 (FTDYELKAY; listed as Homo sapiens) [compound 75] | + (<20% = +) | –
21 | ++++ (>75% = ++++) | 77 (FTSDTGLEY; listed as Homo sapiens) [compound 77] | +++ (50%-69% = +++) | –
22 | +++ (>50 = +++) | 79 (ASDLEPRELLSY; listed as Homo sapiens) [compound 79] | + (<20% = +) | –
23 | +++ (>50 = +++) | 81 (YSDLHTPGRY; listed as Homo sapiens) [compound 81] | + (<20% = +) | –
24 | +++ (>50 = +++) | 82 (LTEKSHIRY; listed as Homo sapiens) [compound 82] | + (<20% = +) | –
25 | +++ (>50 = +++) | 83 (DTEFHGGLHY; listed as Homo sapiens) [compound 83] | + (<20% = +) | –
26 | + (>10% =+) | 384 (RFRSITQSYY; listed as Homo sapiens) [compound 384] | – | –

Row | Peptide exchange [1] | Substance | Wells positive [%] ([2]; Table 10b) | Wells positive [%] ([2]; Table 10a)
27 | ++ (>20% = ++) | 385 (SANALILTY; listed as Homo sapiens) [compound 385] | – | –
28 | ++++ (>75% = ++++) | 388 (YTAHVGYSMY; listed as Homo sapiens) [compound 388] | – | –
29 | + (>10% =+) | 389 (YYDLVESTF; listed as Homo sapiens) [compound 389] | – | –
30 | ++++ (>75% = ++++) | 390 (FSEPFHLIVSY; listed as Homo sapiens) [compound 390] | – | –
31 | ++ (>20% = ++) | 391 (GSNPARYEF; listed as Homo sapiens) [compound 391] | – | –
32 | ++ (>20% = ++) | 392 (TQHFVQENY; listed as Homo sapiens) [compound 392] | – | –
33 | + (>10% =+) | 393 (QVWGGQPVY; listed as Homo sapiens) [compound 393] | – | –
34 | ++ (>20% = ++) | 394 (QVPLDCVLY; listed as Homo sapiens) [compound 394] | – | –
35 | ++ (>20% = ++) | 395 (ILKGGSGTY; listed as Homo sapiens) [compound 395] | – | –
36 | ++ (>20% = ++) | 396 (LPDPNVQKY; listed as Homo sapiens) [compound 396] | – | –
37 | ++++ (>75% = ++++) | 397 (NSAINPLIY; listed as Homo sapiens) [compound 397] | – | –
38 | + (>10% =+) | 398 (YYYDTHTNTY; listed as Homo sapiens) [compound 398] | – | –
39 | – | 399 (YVGKEHMFY; listed as Homo sapiens) [compound 399] | – | + (<20% = +)
40 | – | 400 (NTDNNLAVY; listed as Homo sapiens) [compound 400] | – | + (<20% = +)
41 | – | 401 (VWSNVTPLKF; listed as Homo sapiens) [compound 401] | – | + (<20% = +)
42 | – | 403 (SADDIRGIQSLY; listed as Homo sapiens) [compound 403] | – | + (<20% = +)
43 | – | 404 (FVDNQYWRY; listed as Homo sapiens) [compound 404] | – | + (<20% = +)
44 | – | 408 (VWSDVTPLTF; listed as Homo sapiens) [compound 408] | – | + (<20% = +)
45 | – | 414 (LTEGHSGNYY; listed as Homo sapiens) [compound 414] | – | + (<20% = +)
46 | – | 415 (VWSDVTPLNF; listed as Homo sapiens) [compound 415] | – | + (<20% = +)
47 | – | 417 (KLDRSVFTAY; listed as Homo sapiens) [compound 417] | – | ++++ (>= 70% = ++++)
48 | – | 420 (VTDLEMPHY; listed as Homo sapiens) [compound 420] | – | + (<20% = +)
49 | – | 421 (RSDPGGGGLAY; listed as Homo sapiens) [compound 421] | – | + (<20% = +)
50 | – | 427 (LTDYINANY; listed as Homo sapiens) [compound 427] | – | + (<20% = +)
51 | – | 429 (VSDSECLSRY; listed as Homo sapiens) [compound 429] | – | ++ (20%-49% = ++)
